The record followed here is publication PMC7556843, “The dynamics of linear polyubiquitin” (Science Advances, 2020).

The target in data set [1] is T1, linear (M1-linked) triubiquitin (UniProt P0CG48 1-76; P0CG48 1-76; P0CG48 1-76).
T1 construct: ubiquitin, 76-residue unit, first of three joined head to tail (residues 1-76 of the chain); ubiquitin, 76-residue unit, second of three (residues 77-152 of the chain); ubiquitin, 76-residue unit, third of three (residues 153-228 of the chain); Construct was a gift of P. Elliott and D. Komander; no tag or extra residues are told; One polypeptide of three ubiquitin units linked M1 to C-terminus; …
As to the kind of experiment: SEC-MALS; SEC (Superdex 200 10/300 GL, 4°C) with static light scattering (right-angle, Viscotek TDA 305, 30°C); about 8 mg/ml; 50 mM tris-HCl, 300 mM NaCl pH 8.0 and 50 mM sodium phosphate, 50 mM NaCl pH 7.0. Conditions: both partners purified.

The target in data set [2] is T2, linear (M1-linked) tetraubiquitin (UniProt P0CG48 1-76; P0CG48 1-76; P0CG48 1-76; P0CG48 1-76).
T2 construct: ubiquitin, 76-residue unit, first of four joined head to tail (residues 1-76 of the chain); ubiquitin, 76-residue unit, second of four (residues 77-152 of the chain); ubiquitin, 76-residue unit, third of four (residues 153-228 of the chain); ubiquitin, 76-residue unit, fourth of four (residues 229-304 of the chain); Construct was a gift of P. Elliott and D. Komander; no tag or extra residues are …
The data set is described as above. Conditions: both partners purified.

Data set [3] concerns the molecule itself. Described as above.
Data set [4] addresses T1, linear (M1-linked) triubiquitin. The data set can be described thus: SPR; Ub3 and Ub4 immobilised by amine coupling (456 and 721 RU); NEMO injected in a twofold series; 25°C; 50 mM sodium phosphate, 50 mM NaCl, 0.005% Tween 20, pH 7; equilibrium responses fitted to a 1:1 Langmuir isotherm. Conditions: both partners purified.
Data set [5] has as its target T2, linear (M1-linked) tetraubiquitin. Described as above. Conditions: both partners purified.
The target in data set [6] is T1, linear (M1-linked) triubiquitin. The data set can be described thus: ITC; NEMO titrated into Ub3 or Ub4 in the cell; 298 K; 50 mM sodium phosphate pH 7.0, 50 mM NaCl; triplicate. Conditions: both partners purified. Background: In ITC the heat of successive injections is recorded.
Data set [7] concerns the target T2, linear (M1-linked) tetraubiquitin. Described as above. Conditions: both partners purified.

By Kd is commonly meant the equilibrium constant for the complex coming apart.

T1 sequence (P0CG48 1-228, one chain of several): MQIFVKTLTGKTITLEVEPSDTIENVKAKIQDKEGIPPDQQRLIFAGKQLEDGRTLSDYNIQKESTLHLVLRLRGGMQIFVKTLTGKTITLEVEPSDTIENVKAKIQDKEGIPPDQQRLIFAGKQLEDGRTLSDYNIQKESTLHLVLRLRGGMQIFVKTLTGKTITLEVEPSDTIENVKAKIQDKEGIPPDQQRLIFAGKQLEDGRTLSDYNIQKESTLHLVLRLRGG
T2 sequence (P0CG48 1-304, one chain of several): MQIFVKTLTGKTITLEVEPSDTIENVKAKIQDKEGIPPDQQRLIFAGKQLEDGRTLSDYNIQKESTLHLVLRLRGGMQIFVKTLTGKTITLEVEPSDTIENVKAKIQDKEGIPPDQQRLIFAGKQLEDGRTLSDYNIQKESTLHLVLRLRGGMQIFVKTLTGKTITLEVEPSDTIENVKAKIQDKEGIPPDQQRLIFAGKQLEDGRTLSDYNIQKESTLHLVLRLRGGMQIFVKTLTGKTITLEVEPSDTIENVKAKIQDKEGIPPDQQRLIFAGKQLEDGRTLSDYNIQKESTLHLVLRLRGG

B1: Human NEMO258-350 C347S (NEMO UBAN domain) (domain or fragment, UniProt Q9Y6K9 258-350, looked up)
chain: MQLEDLKQQLQQAEEALVAKQEVIDKLKEEAEQHKIVMETVPVLKAQADIYKADFQAERQAREKLAEKKELLQEQLEQLQREYSKLKASSQES
notes: NEMO (IKKγ, NF-κB essential modulator), human, residues 258-350 (UBAN domain) with C347S; also called NEMO mutant (C347S); IKKγ; source: expressed and purified as described in Vincendeau et al. (23)
On to B1, for which the entries for the “stoichiometry N” value in data set [1] and in data set [2] were 2 NEMO:Ub3 and 2 NEMO:Ub4, respectively. The binding result in data set [3] was “binds”. In addition, the Kd in data set [4] amounted to 9.6 µM; in data set [5], 6.4 µM; in data set [6], 1600 nM; in data set [7] it was 4.1 µM. In addition, the dH in data set [6] was -17.9 kJ/mol; in data set [7] it was -18.8 kJ/mol.
